Data on four molecules can be found in article PMC13223232, “Structural basis for TRF2-RAP1 recruitment by EBNA1 at the EBV origin of replication” (Scientific Reports, 2025).

The labels stand for the following.
T1: EBNA1 Δ90–325 3x (E495A D499A E500A) (Epstein-Barr virus, UniProt P03211 1-641, Δ90–325 | E495A | D499A | E500A)
T1 construct: also called 3x mutant EBNA1; source: E. coli, purified (Ni-NTA, SEC); not shown: His6-SUMO, N-terminal, cleaved
T1 sequence: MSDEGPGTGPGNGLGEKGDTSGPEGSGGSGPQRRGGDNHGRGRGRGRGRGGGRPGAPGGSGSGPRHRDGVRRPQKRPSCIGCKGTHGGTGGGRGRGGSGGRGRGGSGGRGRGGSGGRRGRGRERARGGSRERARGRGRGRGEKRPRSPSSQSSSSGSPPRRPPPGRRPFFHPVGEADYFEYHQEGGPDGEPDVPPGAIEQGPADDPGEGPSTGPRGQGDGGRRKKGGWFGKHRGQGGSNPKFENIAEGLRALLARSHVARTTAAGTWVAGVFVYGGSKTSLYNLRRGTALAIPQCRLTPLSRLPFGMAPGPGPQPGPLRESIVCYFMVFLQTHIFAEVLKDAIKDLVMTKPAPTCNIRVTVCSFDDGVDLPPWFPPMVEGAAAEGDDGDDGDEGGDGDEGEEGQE

T2: full-length Rap1 (human, UniProt Q9NYB0 1-399)
T2 construct: also called TERF2IP; source: E. coli, purified (Ni-NTA, SEC); not shown: His6-SUMO, N-terminal, cleaved
T2 sequence (looked up): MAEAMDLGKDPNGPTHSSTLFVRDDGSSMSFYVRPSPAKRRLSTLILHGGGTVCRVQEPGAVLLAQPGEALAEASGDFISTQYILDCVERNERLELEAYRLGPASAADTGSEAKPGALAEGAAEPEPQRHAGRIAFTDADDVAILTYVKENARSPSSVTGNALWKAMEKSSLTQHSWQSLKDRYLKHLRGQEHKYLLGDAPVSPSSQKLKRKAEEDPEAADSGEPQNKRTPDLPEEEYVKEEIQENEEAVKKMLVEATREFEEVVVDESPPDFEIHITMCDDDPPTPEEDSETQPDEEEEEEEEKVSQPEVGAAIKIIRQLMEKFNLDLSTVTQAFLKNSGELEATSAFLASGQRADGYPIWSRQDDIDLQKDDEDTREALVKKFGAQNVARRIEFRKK

T3: full-length TRF2 (human, UniProt Q15554 1-542)
T3 construct: also called TERF2; source: E. coli, purified (Ni-NTA, SEC); not shown: His6-SUMO, N-terminal, cleaved
T3 sequence (looked up): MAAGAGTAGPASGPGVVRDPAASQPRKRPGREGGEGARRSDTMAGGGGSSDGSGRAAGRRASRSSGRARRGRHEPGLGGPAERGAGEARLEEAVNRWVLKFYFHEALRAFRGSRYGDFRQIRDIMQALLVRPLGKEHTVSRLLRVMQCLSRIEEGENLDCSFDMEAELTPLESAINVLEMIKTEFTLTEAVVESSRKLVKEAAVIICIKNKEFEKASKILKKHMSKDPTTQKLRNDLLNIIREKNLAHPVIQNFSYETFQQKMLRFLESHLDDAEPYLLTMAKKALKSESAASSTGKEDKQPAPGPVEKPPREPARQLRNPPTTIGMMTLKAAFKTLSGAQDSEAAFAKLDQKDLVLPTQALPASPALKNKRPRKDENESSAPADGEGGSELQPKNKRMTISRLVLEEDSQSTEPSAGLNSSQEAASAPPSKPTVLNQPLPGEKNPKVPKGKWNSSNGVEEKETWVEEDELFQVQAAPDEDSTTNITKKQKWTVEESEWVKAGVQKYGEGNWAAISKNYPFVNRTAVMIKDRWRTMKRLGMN

B1: GST-TRFH domain (amino acids 85–287) (domain or fragment, human, UniProt Q15554 85-287, looked up)
chain: AGEARLEEAVNRWVLKFYFHEALRAFRGSRYGDFRQIRDIMQALLVRPLGKEHTVSRLLRVMQCLSRIEEGENLDCSFDMEAELTPLESAINVLEMIKTEFTLTEAVVESSRKLVKEAAVIICIKNKEFEKASKILKKHMSKDPTTQKLRNDLLNIIREKNLAHPVIQNFSYETFQQKMLRFLESHLDDAEPYLLTMAKKALK
notes: also called TRF2 homodimerization domain; TRF2 dimerization domain; source: E. coli, purified to near homogeneity; not shown: GST, N-terminal, kept
B2: full length TRF2/Rap1 complex (complex)
chain 1: T3 sequence (looked up)
chain 2: T2 sequence (looked up)
notes: also called pre-assembled TRF2-Rap1 complex; source: E. coli, each purified (Ni-NTA, SEC); pre-assembled complex purified by glycerol gradient; not shown: His6-SUMO, N-terminal, cleaved
B3: EBNA1 459–607 (domain or fragment)
chain: RKKGGWFGKHRGQGGSNPKFENIAEGLRALLARSHVERTTDEGTWVAGVFVYGGSKTSLYNLRRGTALAIPQCRLTPLSRLPFGMAPGPGPQPGPLRESIVCYFMVFLQTHIFAEVLKDAIKDLVMTKPAPTCNIRVTVCSFDDGVDLP
notes: also called shorter EBNA1 459–607; core structured DBD; source: E. coli
B4: EBNA1 DNA binding domain (DBD) aa 401–607 (domain or fragment)
chain: GRRPFFHPVGEADYFEYHQEGGPDGEPDVPPGAIEQGPADDPGEGPSTGPRGQGDGGRRKKGGWFGKHRGQGGSNPKFENIAEGLRALLARSHVERTTDEGTWVAGVFVYGGSKTSLYNLRRGTALAIPQCRLTPLSRLPFGMAPGPGPQPGPLRESIVCYFMVFLQTHIFAEVLKDAIKDLVMTKPAPTCNIRVTVCSFDDGVDLP
notes: also called EBNA1 DBD; EBNA1 401–607; source: E. coli, purified (Ni-NTA, SEC); not shown: His6-SUMO, N-terminal, cleaved

Series [1] has as its target B4. As to the kind of experiment: native gel or EMSA; supershift of the ½ DS-EBNA1 complex by TRFH (no Myb domain); binding buffer lowered to 100 mM KCl, highest TRFH 10 µM (1000-fold stoichiometric excess); only a weak supershift under standard conditions (300 mM KCl). The conditions noted are these: both partners purified. (Mobility shift assays separate free from complexed probe on a gel.)

Series [2] has as its target T1, EBNA1 Δ90–325 3x (E495A D499A E500A). Briefly: native gel or EMSA; pre-assembled TRF2-Rap1 complex (glycerol-gradient purified) serially diluted and added to pre-assembled ½ DS-EBNA1 complex (20 nM EBNA1 Δ90–325 WT, 3x or 8x, 5 nM ½ DS DNA); binding buffer with 300 mM KCl, pH 7.5. Particulars: both partners purified.
Series [3] has as its target B1. As to the kind of experiment: native gel or EMSA; supershift of the ½ DS-EBNA1 complex by TRFH (no Myb domain); binding buffer lowered to 100 mM KCl, highest TRFH 10 µM (1000-fold stoichiometric excess); only a weak supershift under standard conditions (300 mM KCl). The conditions noted are these: both partners purified.
A further series has as its target T2, full-length Rap1. As to the kind of experiment: cross-linking; zero-length EDC/Sulfo-NHS cross-linking with LC-MS/MS; complex mixed 1 ½ DS DNA : 4 EBNA1 401–607 : 2.5 TRF2 : 2.5 Rap1, glycerol-gradient purified, 1 mg/mL in 20 mM MES pH 6.8, 100 mM NaCl, 1 mM MgCl2, 10 µM ZnCl2, 0.5 mM TCEP; 10 mM crosslinker, room temperature, 2 h. Particulars: both partners purified.

In another series the target is T3, full-length TRF2. The description is as above. Particulars: both partners purified.
Series [4] concerns the molecule itself. As to the kind of experiment: cryo-EM structure; ½ DS + EBNA1 DBD + TRF2 + Rap1 (1 : 4 : 2.5 : 2.5), GraFix (10-30% glycerol, 0.125% glutaraldehyde); estimated 7.1 Å reconstruction.
For series [5], the target named is B2. Briefly: native gel or EMSA; IRD700-labelled 60 bp ½ DS DNA probe (5 nM); Rap1, TRF2 or TRF2 + Rap1 titrated up to 480 nM without EBNA1, with EBNA1 401–607 or with EBNA1 Δ90–325; 10 mM HEPES pH 7.5, 300 mM KCl, 5 mM MgCl2, 1 mM ZnCl2, 5 mM BME, 0.05% NP-40, 5% glycerol; 1.4% agarose gel; all proteins meet on the DNA. The conditions noted are these: both partners purified.

For the molecule B1, in series [1], the binding result is “binds”.
For the molecule B2, the “fold weaker binding than with WT EBNA1” value in series [2] is roughly 2 fold.
Take B3: the binding result in series [3] is recorded as “binds”.
B4: the binding result (with full-length Rap1; in the series with full-length TRF2; in series [4]; in series [5]) was “binds” each time.
